Measurements as given in the nanobody polyreactivity screen of Harvey et al. (2022).

Assay: yeast display, Sf9 membrane polyspecificity reagent, FACS + sequencing; frameworks hold sequencing errors
In short: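 In a synthetic yeast display library (Saccharomyces cerevisiae BJ5465), nanobody expression was induced with galactose for 36–48 hours. FACS gates were set low and high (top ~1%) using anti-HA fluorescence for expression and streptavidin fluorescence for binding of the Sf9 membrane reagent. Each polyreactivity label is drawn from the gate of origin.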

| Sequence | polyreactivity (PSR sort gate) |
| --- | --- |
| QVQLVESGGGLVQAGGSLRLSCAASGIIFRSYTMGWYRQAPGKERELVASITRSGGITYYADSVKGRFTISRDNAKNTVYLQMNSLKPEDTAVYYCAARHRYYYQYRSDYWGQGTQVSVSS | high polyreactivity |
| QVQLVESGGGLVQAGGSLRLSCAASGSIFDLYAMGWYRQAPGKERELVAGISYSGGSTYYADSVKGRFTISRDNAKNTVYLQMNSLKPEDTAVYYCAVDLGYRLGRFDYWGQGTQVTVSS | low polyreactivity |
| QVQLVESGGGLVQAGGSLRLSCAASGGTIGSNTMGWYRQAPGKERELVAAITSGVSTNYADSVKGRFTISRDNAKNTVYLQMISLKPEDNAVYYCAKVLWSEEYETIITSYGFDYWGQGTQVTVSS | low polyreactivity |
| QVQLVESGVGLVQAGGSLRLSCAASGRIFAHNAMGWYRQAPGKERELVAAISTGGSTNYADSVKGRFTISRDNAKNTVYLQMNSLKPEDTAVYYCARDAYLPRIADGDGRYELVDYWGQGTQVTVSS | low polyreactivity |
| QVQLVESGGGLVQAGGSLRLSCAASGSIFKPYAMGWYRQAPGKERELVAAISTRGSSTYYADSVKGRFTISRDNAKNTVYLQMNSLIPEDTAVYYCAKRRYLWGYEYDSWGQGTQVTVSS | high polyreactivity |
| QVQLVESGGGLVQAGGSLRLSCAASGGTFYRYAMGWYRQAPGKERELVAVISKRGGTTYYADSVKGRFTISRDNAKITVYLQMNSLKPEDTAVYYCADRPYYWGQGTQVTVSS | high polyreactivity |
| QVQLVESGGGLVQAGGSLRLSCAASGRIFYSYAMGWYRQAPGKERELVAAITVSGGSTFYADSVKGRFTISRDNAKNTVYLQMNSLKPEDTAVYYCAATRFSQYDWGQGTQVTVSS | high polyreactivity |
| QVQLVESGGGLVQAGGSLRLSCAASGRTFANYAMGWYRQAPGKDRELVAAIYSGGNTYYEDSVKGRFTISRDNAKNTVFLQMNRLKPEDTAVYYCNSPWYYRYQRNEYGYWGQGTQVTVSS | high polyreactivity |
| QVQLVESGGGLVQAGGSLRLSCAASGSIFRLYAMGWYRPAPGKERELVAAISRRGGSTNYADSVKGRFTISRDNAKNTVNLQMNSLKPEDTAVYYCNAVSKRSRYDYWGQGTQVTVSS | high polyreactivity |
| QVQLQESGGGLVQAGGSLLSCAASGTISWDDEMGWYLQAPGNERELVAGIAGGGNTNYADSVKGRFTISRDNAKNTVYLQMNSLDTAVYYCAVVGFGRGTHIYWGQGTQVTVSS | high polyreactivity |
| QVQHVESGAGLVQAGGSLRLTCAASARTFKPYARGWYRQPPGKERELLAVISFSGGSTYYADSVKGRFTISRDNSKNTFYLQMNSLKPEDTAVYYCNAEGVTRQGGYDYWGQGTQVTVSS | high polyreactivity |
| QVQLVESGGGLVQAGGSLRLSCAASGSIFTGNAMGWYRQAPGKERELVAAIRRSGA | low polyreactivity |
| QVQLVDSGRGFVQAGGSLRLSCAASGSTYPGNEMGRSRQAPGKESELVAAIRWSGGSTYYADSVKGRFTISRDNAKNNVYLQMNSLKPEDTAVYYCAADYLIPDTYLFQAYVGFEYWGQGTLVTVSS | low polyreactivity |
| QVQLVESVGGLVQAGGSLRLSCAASGFTFRHYVMGWYRQQPGKERELVAAIDVRGGSTYYADSVKGRFTISRDNAKNTVYLQMNSLKPEDTAVYYCAKRLIPRLPNLQKMDYWGQGTQVTVSS | low polyreactivity |
| QVQLVESGGGLVQAGGSLRLSCAASGFTFSWYPMGWYRQAPGKERELVAAITSGGGTNYADSVKGRFTISRDNAKNTVYLQMNSLIPEDTAVYYCAARGRWFYYLDDYWGQGTQVTVSS | low polyreactivity |
| QVQLVESGGGLVQAGGSLRLSCAASGSTFIVYAMGWYRQAPGKERELVAAISLDGGSTYYADSVKGRFTISRDNAKNTVYLQMNSLKPEDTAVYYCNADYYANSITYDSWGQGTQVTVSS | low polyreactivity |
| QVQLVESGGGLVQAGGSLRLSCAASGITFPLYVMGWSRQAPGKERELVAAISASGGSTYADSVKGRFTISRDNAKNTVYLQMNSLKPEDTAVYYCNADVYVGYEYDYWGQGTQVTVSS | low polyreactivity |
| QVQHVESGGGLVQAGGSLRLSCAASGSIFVWYAMGWYRQAHGKERELVAAINWSGGRTYYADSVKGRFTISRDNAKNTVYLQMNSLKPEDTAVYYCAAELRRSDTYNYWGQGTQVTVSS | high polyreactivity |
| HVQLVESGGGLVQAGGSLRLSCAASGRTFARYAMGWYRQAPGKERELVAAITRGGRTNYADSVKGRFTSSRDNAKNTVYLQMNSLKPEDTAVYYCNAYFVNPYDYWGQGTQVTVSS | high polyreactivity |
| QGQLVESGGGLVQAGGSLRLSCAASAFIFDDNTMGWYRQAPGKERELGAAISYSAGSTYYADSVKGRFTISRDNAKNTVYLQMNSLKPEDTAVYSCAAQHYWVTSYLSSYDYWGQGTQVTLSS | low polyreactivity |
| QVQLVESGGGLVQARGSLRLSCAASGSIFDGNAMGWYRQAPGKERELVAAITWRGTRTYYADSVKGRFTISRDNAKNTVYLQMNSLKPEDTAVYYCNKKWYPYLEHDYWGQGTQGTVSS | high polyreactivity |
| QVQLVESGGGLVQAGGSLRLSCAASGRIFYSNTMGWYRQAPGKERELVAAITWRGGRTHYADSVKGRLTISRDNAKNPVYLQMNSLTPEDTAVYYCAARYIPIQYPSYRTWGGYSWGQGTQVTVSS | high polyreactivity |

| Sequence | polyreactivity (PSR sort gate) |
| --- | --- |
| QLQLVESGGGLVQAGGSLRLSSAASGSIFIYYAMGWYRQAAGKERELVAAISYSDGDTYYADSVKGRFTISRDNAKNTVYLQMNSLKPEDTAVYYCAAEVPQYYDVGWEDYWGQGTQVTVSS | high polyreactivity |
| QVQLVESGGGLVQAGGSLRLSCAASGRIFRTYAMGWYRQAPGKERELVAAINSVDRTYYADSVKGRFTISRDNAKNTVYLQMNSLKPEDTAVYYCAATIAPTPGYIIYDYWGQGTQVTVSS | high polyreactivity |
| QLQLVESGGGLVQAGGSLRITCAASGSTFYCYSMACYRQAPGKERALVARISSSSGRTYYADSVKGRFTISRDNAKNTVYLQMNLLKPEDTAVYYCAKYVYGKFDGVRYSYDYWGQGTQVTVSS | low polyreactivity |
| QVQLVESGGGLVQAGGSLRISCAASGSIFLLYTMGWYRQAPGKEREMVATITSSGGSTYYADSVKGRFTISRDNAKNTVYLHMNSLKPEDTAVYDCNAVGSTWGSFVRYGAQYDYWGQGTEVTVSS | low polyreactivity |
| QDQLVESGGGLVQAGGSLRLSCAASGSTFPAYAMGWYRQAPGKERELVAAISVRRGRTYYADSVKGRFTSSRDNAKNTVYLQMNSLKPDDTAVYYCAAYLRPGGNYYWGQGTQVTVSS | high polyreactivity |
| QVHLVESVGGLFQAGGSLRLSCAPSGYIYVANVKGWYRQAPGKERELVAAINRRTGITYYADSVKGRCTNSRDNAKNTVNLQMNSLKTEDTAVYYCAALAQSTTYTRPYDYWGQGTQVTVSS | low polyreactivity |
| QVQLVESGGGLVQAGGSLRLICAASGGISLYYVKGWYRQAPGKERELVADISGDDSTNYADSVKGRFTISRDNAKNTVYLQMNSLKPEDTAVYYSAAVPGLFYLPYDYWGQGTQVTVSS | low polyreactivity |
| QVQLVESGGGLVQAGGSLRLSCAASGITFGLYSMGWYRQAPGKQRELVASISQSGGSTYYADSVKGRFTISRDNAKNTVYLQMNSLKPEDTAVYYCNARRRFWDFSTRGYDSWGQGTQVTVSS | high polyreactivity |
| QVQLVESGGGLVQAGGSLRLSCAASGRTLGQNVMGWYRQAPGKERELVAAISSNTAGNTYYADSVKGRFTISRDNAKNTVYLQMNSLKPEDTAVYYCAIVDSFEAILDYWGQGTQVTVSS | low polyreactivity |
| QVQLVESGGGLVQAGGSLRLSCADSGRIIYKNAMGWYRQAPGKERELVAAITSSGGSTYYADSVKGRFTISRDNAKNTVYLQMNSLTPVDTAVYYCAAYAYVRFGKLNYWGQGTQVTVSS | low polyreactivity |
| QVQLVESGGGLVQAGGSLRLICAASGNTLIVNAMGWYRQAPGKERELVAAITRDGRTNYADSVKGRFTISRDNAKNTVYLQMNSLKPEDTAVYYCAARLAQSTGYGYWGQGTQVTVSS | low polyreactivity |
| QVQLVESGGGLVQAGGSLRLSCAASGSTSYSYMGWYRQAPGKERELVAAIDESGGSTYYADSVKGRFTISRDNAKNTVYLQMNSLKPEDTAVYYCNRRYGRSYRWGYGYWGQGTQVTVSS | low polyreactivity |
| QVQLVESGGGLVQAGGSLRLSCAASGSIFTYYAMGWYRQAPGKERELVAAISWRSGSTYYADSVKGRFTISRDNAKNTVYLQMNSLKPEDTAVYYCAAEDFDYAVWYDYWGQGTQVTVSS | high polyreactivity |
| QVQLVESGGGLVQAGGSLRLSCAPSGSTLTSNAMGWYRQAPGKERELVAASRSGGSTNYADSVKGRFTISRDNAKNTVYLQMNSLKPEDTAVYYCNKDFLWQGYGYSRVSYDYWGQGTQVTVSS | low polyreactivity |
| QVQLVESGGGLVQAGGSLRLSCAASGRTFYYNAMGWYRQAPGKEREFVAGISYGGTTTYYADSVKGRFTISRDNAKNTVYLQMNSLKPEDTAVYYCAAGYTWRQSWYPFDYWGQGTQVTVSS | high polyreactivity |
| QVQLVESGGGLVQAGGSLRLSCAASGSIFGIYAKGWYRQAPGKERELVAAITTTGGTSDYADSVKGRFTISRENAKNTVYVQMKSLKPVDTAVYYCAADAYYYWYYSLDYYYWGQGTQVTVSS | high polyreactivity |
| QVQLVESGGGLVQAGGSLRLSCAASGRIFKYYAMGGYRQAPGKERELVAAISGSGGSTFYADSVKGRFTISRDNAKNTVYLQMNSLKPEDSALYYCNADEVVWGYNYWGQVTQVTVSS | low polyreactivity |
| QVQLVESGGGLVQAGGSLRLSCAASGITFTNYAMGWYRQAPGKERELVAAISSRGGRTYYADSVKGRFTISRDNAKNTVYLQMNSLKPEDTAVYYCAASFFQVYGDDYWGQGTQVTVSS | high polyreactivity |
| QVQLVESGGGLVQAGGSLRLSCAASGGTFSNNAMGWYRQAPGKERELVAAISNSGGRTYYADSVKGRFTISRDNAKNTVYLQMNSLKPEDTAVYYCNVRRGYWHPGYGWANYDYWGQGTQVTVSS | high polyreactivity |
| QVQLVESGGGLVQAGGSLRLSCAASGRIFWGYAMGWYRQAPGKERELVAAINRGSSTYYADSVKGRFTISRDNAKNTVYLQMNSLKPEDTAVYYCAVKGYLPYTGIFDYWGQGTQVTVSS | high polyreactivity |
| QVQLVESGGGLVQAGGSLRLSCAASGLTFASYAMGWYRQAPGKERELVARISRSGGSTYYADSVKGRFTISRDNAKNTVYLQMNSLKPEDTAVYYCAADYIFRRYPVGGIYDYDYWGQGTQVTVSS | high polyreactivity |
